{"source": "patent US20240383985A1", "about": "(published 2024)", "binders": {"B1": {"name": "CD33 antibody IgG1 wt subtype QP41154116 (antibody, V domains shown)", "VH": "QVQLVQSGAEVKKPGESVKVSCKASGYTFTNYGMNWVKQAPGQGLEWMGWINTYTGEPTYADKFQGRVTMTTDTSTSTAYMEIRNLGGDDTAVYYCARWSWSDGYYVYFDYWGQGTSVTVSS", "VL": "DIVMTQSPDSLTVSLGERTTINCKSSQSVLDSSTNKNSLAWYQQKPGQPPKLLLSWASTRESGIPDRFSGSGSGTDFTLTIDSPQPEDSATYYCQQSAHFPITFGQGTRLEIKR"}, "B2": {"name": "CD33/CD16A/IL-15 trifunctional fusion protein QP43394340 (FC with L234A/L235A mutation for eliminating function) (bispecific antibody)", "chain 1": "not shown", "chain 2": "not shown", "light": "DIVMTQSPDSLTVSLGERTTINCKSSQSVLDSSTNKNSLAWYQQKPGQPPKLLLSWASTRESGIPDRFSGSGSGTDFTLTIDSPQPEDSATYYCQQSAHFPITFGQGTRLEIKRTVAAPSVFIFPPSDEQLKSGTASVVCLLNNFYPREAKVQWKVDNALQSGNSQESVTEQDSKDSTYSLSSTLTLSKADYEKHKVYACEVTHQGLSSPVTKSFNRGEC", "heavy": "QVQLVQSGAEVKKPGESVKVSCKASGYTFTNYGMNWVKQAPGQGLEWMGWINTYTGEPTYADKFQGRVTMTTDTSTSTAYMEIRNLGGDDTAVYYCARWSWSDGYYVYFDYWGQGTSVTVSSASTKGPSVFPLAPSSKSTSGGTAALGCLVKDYFPEPVTVSWNSGALTSGVHTFPAVLQSSGLYSLSSVVTVPSSSLGTQTYICNVNHKPSNTKVDKKVEPKSCDKTHTCPPCPAPEAAGGPSVFLFPPKPKDTLMISRTPEVTCVVVDVSHEDPEVKFNWYVDGVEVHNAKTKPREEQYNSTYRVVSVLTVLHQDWLNGKEYKCKVSNKALPAPIEKTISKAKGQPREPQVYTLPPSREEMTKNQVSLSCAVKGFYPSDIAVEWESNGQPENNYKTTPPVLDSDGSFFLVSKLTVDKSRWQQGNVFSCSVMHEALHNRYTQKSLSLSPGK"}, "B3": {"name": "CD33/CD16A bispecific antibody QP4115777778 (FC wild-type) (bispecific antibody)", "chain": "not shown", "heavy": "QVQLVQSGAEVKKPGESVKVSCKASGYTFTNYGMNWVKQAPGQGLEWMGWINTYTGEPTYADKFQGRVTMTTDTSTSTAYMEIRNLGGDDTAVYYCARWSWSDGYYVYFDYWGQGTSVTVSSASTKGPSVFPLAPSSKSTSGGTAALGCLVKDYFPEPVTVSWNSGALTSGVHTFPAVLQSSGLYSLSSVVTVPSSSLGTQTYICNVNHKPSNTKVDKKVEPKSCDKTHTCPPCPAPELLGGPSVFLFPPKPKDTLMISRTPEVTCVVVDVSHEDPEVKFNWYVDGVEVHNAKTKPREEQYNSTYRVVSVLTVLHQDWLNGKEYKCKVSNKALPAPIEKTISKAKGQPREPQVYTLPPSREEMTKNQVSLSCAVKGFYPSDIAVEWESNGQPENNYKTTPPVLDSDGSFFLVSKLTVDKSRWQQGNVFSCSVMHEALHNRYTQKSLSLSPGKGGSHHHHHH", "light": "B2 light"}, "B4": {"name": "CD33/CD16A/IL-15 trifunctional fusion protein QP743745 (FC wild-type) (bispecific antibody)", "chain 1": "not shown", "chain 2": "not shown", "light": "B2 light", "heavy": "B2 heavy with A239L, A240L"}}, "key": {"[1]": {"target": "T1, CD33 naturally expressed on HL60 cells (human, UniProt P20138 18-364)", "T1 sequence (P20138 18-364)": "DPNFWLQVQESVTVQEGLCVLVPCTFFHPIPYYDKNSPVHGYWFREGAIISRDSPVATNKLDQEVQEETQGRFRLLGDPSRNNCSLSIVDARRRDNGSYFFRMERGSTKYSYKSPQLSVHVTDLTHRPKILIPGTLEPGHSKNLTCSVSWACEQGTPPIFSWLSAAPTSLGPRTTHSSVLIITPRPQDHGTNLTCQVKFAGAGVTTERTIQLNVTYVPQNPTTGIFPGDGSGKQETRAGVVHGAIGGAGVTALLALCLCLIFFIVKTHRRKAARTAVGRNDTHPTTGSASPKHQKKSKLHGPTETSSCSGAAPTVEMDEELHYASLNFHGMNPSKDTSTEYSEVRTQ", "assay": "FACS"}, "[2]": {"target": "T1, CD33 naturally expressed on HL60 cells", "assay": "FACS", "remark": "listed apart in the source"}}, "note": "Changes are numbered by the printed parent chain. In names and notes the source's numbering stands. Like-named read-outs stand apart in the source and are kept apart here.", "data": [{"binder": "B1", "values": [{"measurement": "EC50", "setting": "[1]", "result": 2.89, "unit": "nM"}, {"measurement": "EC50", "setting": "[2]", "result": 3.31, "unit": "nM"}]}, {"binder": "B2", "values": [{"measurement": "EC50", "setting": "[1]", "result": 13.4, "unit": "nM"}]}, {"binder": "B3", "values": [{"measurement": "EC50", "setting": "[1]", "result": 9.63, "unit": "nM"}]}, {"binder": "B4", "values": [{"measurement": "EC50", "setting": "[1]", "result": 8.08, "unit": "nM"}]}]}
